# Patent publication US20140099299A1 (UAB RESEARCH FOUNDATION, published 2014)
# Numbering of substitutions follows the chain as printed. In names and notes the source's numbering stands.
# T1: human IL-10R1 chain coupled to agarose beads (human, UniProt Q13651 22-235)
# T1 construct: also called HuIL-10R1 coupled beads; human IL-10R1 beads
# T1 sequence: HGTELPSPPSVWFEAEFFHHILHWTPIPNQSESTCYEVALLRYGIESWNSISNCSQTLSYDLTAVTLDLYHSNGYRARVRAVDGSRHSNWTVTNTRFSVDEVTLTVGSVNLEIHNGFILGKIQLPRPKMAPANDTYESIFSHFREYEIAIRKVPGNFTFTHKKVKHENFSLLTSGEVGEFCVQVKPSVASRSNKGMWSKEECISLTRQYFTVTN
# T2: human IL-10R1 chain on transfected TF-1 cells (TF-1/HuIL-10R1) (human, UniProt Q13651 22-578)
# T2 sequence: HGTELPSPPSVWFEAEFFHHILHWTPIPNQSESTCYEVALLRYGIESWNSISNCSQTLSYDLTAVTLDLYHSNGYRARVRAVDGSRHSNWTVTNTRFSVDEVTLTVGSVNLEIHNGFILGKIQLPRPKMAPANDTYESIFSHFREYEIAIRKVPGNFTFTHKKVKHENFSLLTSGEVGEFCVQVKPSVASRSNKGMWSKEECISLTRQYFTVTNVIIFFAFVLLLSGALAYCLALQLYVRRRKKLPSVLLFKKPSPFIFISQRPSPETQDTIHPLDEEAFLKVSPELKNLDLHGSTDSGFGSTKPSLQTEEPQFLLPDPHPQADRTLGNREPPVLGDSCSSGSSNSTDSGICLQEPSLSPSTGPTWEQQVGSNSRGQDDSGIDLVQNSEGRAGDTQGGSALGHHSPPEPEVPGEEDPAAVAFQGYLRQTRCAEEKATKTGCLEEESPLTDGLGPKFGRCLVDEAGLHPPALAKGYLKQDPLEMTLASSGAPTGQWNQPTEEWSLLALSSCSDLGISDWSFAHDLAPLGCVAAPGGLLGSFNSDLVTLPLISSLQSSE
# B1: H6FXa-rhcmvIL-10 Arg-34Glu point mutant (R63E of SEQ ID NO:1) (ligand)
# chain: PPHHHHHHSDIEGRAHDHEHKEVPPACDPVHGNLAGIFKELRATYASIEEGLQKKDTVYYTSLFNDRVLHEMLSPMGCRVTNELMEHYLDGVLPRASHLDYDNSTLNGLHVFASSMQALYQHMLKCPALACTGKTPAWMYFLEVEHKLNPWRGTAKAAAEADLLLNYLETFLLQF
# notes: Tested as Drosophila cell supernatant; Its exact end in pAHF cannot be seen because the underlining is lost; also called R34E; Lys-34Glu
# B2: H6FXa-rhcmvIL-10 Gln-38Arg point mutant (Q67R of SEQ ID NO:1) (ligand)
# chain: B1 chain with E49R, Q53R
# notes: Tested as Drosophila cell supernatant; also called Q38R
# B3: H6FXa-rhcmvIL-10 Asp-144His point mutant (D176H of SEQ ID NO:1) (ligand)
# chain: B1 chain with E49R, D162H
# notes: Tested as Drosophila cell supernatant; also called D144H
# Experiments:
# [1] = molecular target: T1, human IL-10R1 chain coupled to agarose …; assay: pull-down of 500 µL Drosophila medium with 15 µL HuIL-10R1-coupled agarose beads, Coomassie-stained SDS-PAGE
# [2] = molecular target: T2, human IL-10R1 chain on transfected TF-1 …; assay: cell-based or functional assay
Binder,binding result [1],proliferation of TF-1/HuIL-10R1 cells [2]
B1,no binding,–
B2,no binding,~100 fold reduction in activity
B3,no binding,~300 fold reduction in activity
